T1: CRF2R
T1 sequence (Q13324 whole entry, species assumed, looked up): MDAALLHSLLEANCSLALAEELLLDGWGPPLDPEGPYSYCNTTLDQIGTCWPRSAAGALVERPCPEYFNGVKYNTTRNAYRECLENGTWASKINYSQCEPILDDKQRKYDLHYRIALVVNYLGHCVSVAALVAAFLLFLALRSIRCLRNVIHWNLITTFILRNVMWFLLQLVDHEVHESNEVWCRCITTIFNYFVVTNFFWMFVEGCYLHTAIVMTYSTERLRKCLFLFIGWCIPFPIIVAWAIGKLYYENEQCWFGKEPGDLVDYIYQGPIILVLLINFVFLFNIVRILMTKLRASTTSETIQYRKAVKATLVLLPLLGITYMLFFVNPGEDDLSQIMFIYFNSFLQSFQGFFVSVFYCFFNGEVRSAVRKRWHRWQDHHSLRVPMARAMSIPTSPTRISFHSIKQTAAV


What was measured:
CRF2R = molecular target: T1, CRF2R; experiment: cell-based or functional assay
CRF1R = experiment: cell-based or functional assay
Throughout, for CRF1R Emax %: reference of the scale not given here.
Throughout, for CRF2R Emax %: reference of the scale not given here.

Binder	CRF2R EC50 (CRF2R) [nM]	CRF2R Emax % (CRF2R) [%]	CRF1R EC50 (CRF1R) [nM]	CRF1R Emax % (CRF1R) [%]
ZGPPISIDLPFQLLRILIEIEKQEKEKQQAANNRLLLDTI (not fully specified; C-terminal amide) [SEQ ID NO 255]	7	100	33.3	84
ZGPPISIDLPLYLLRKMIEIEKQEKEKQQAANNALLLATI (C-terminal amide) [SEQ ID NO 245]	7.5	93	381	100
ZGPPISIDLPTYLLRILIEIEKQEKEKQQAANNRLLLDTI (not fully specified; C-terminal amide) [SEQ ID NO 252]	22.3	100	226	100
ZGPPISIDLPLQLLRKMIEIEKQEKEKQQAANNALLLDTI (not fully specified; C-terminal amide) [SEQ ID NO 248]	19.6	98	1000	32
ZGPPISIDVPIGLLRKMIEIEKQEKEKQQAANNRLLLDTI (not fully specified; C-terminal amide) [SEQ ID NO 254]	100	36	708	6
ZGPPISIDVPTYLLRKMIEIEKQEKEKQQAANNRLLLDTI (C-terminal amide) [SEQ ID NO 253]	41.8	86	1000	42
ZGPPISIDLPFQLLRKMIEIEKQEKEKQQAANNRLLLATI (not fully specified; C-terminal amide) [SEQ ID NO 250]	19.7	100	138	99
ZGPPISIDLPLQLLEKMIEIEKQEKEKQQAANNALLLATI (not fully specified; C-terminal amide) [SEQ ID NO 249]	12.2	92	1000	50
ZGPPISIDLPFQLLRKMIEIEKQEKEKQQAANNALLLDTI (C-terminal amide) [SEQ ID NO 251]	11.8	100	926	80
ZGPPISIDLPLQLLRKMIEIEKQEKEKQQATTNARLLDTV (C-terminal amide) [SEQ ID NO 246]	38.8	100	1000	33
ZGPPISIDLPLQLLEKMIEIEKQEKEKQQATTNARLLDRV (C-terminal amide) [SEQ ID NO 247]	18.8	100	1000	34

— US20030148958A1 (PROCTER AND GAMBLE, published 2003)
